In US20040002127A1 (CHISSO, published 2004):

Target: T1, 35 kDa protein of Oplophorus luciferase (native, purified from Oplophorus gracilirostris) (Oplophorus gracilirostris, UniProt Q9GV46 40-359)
T1 sequence: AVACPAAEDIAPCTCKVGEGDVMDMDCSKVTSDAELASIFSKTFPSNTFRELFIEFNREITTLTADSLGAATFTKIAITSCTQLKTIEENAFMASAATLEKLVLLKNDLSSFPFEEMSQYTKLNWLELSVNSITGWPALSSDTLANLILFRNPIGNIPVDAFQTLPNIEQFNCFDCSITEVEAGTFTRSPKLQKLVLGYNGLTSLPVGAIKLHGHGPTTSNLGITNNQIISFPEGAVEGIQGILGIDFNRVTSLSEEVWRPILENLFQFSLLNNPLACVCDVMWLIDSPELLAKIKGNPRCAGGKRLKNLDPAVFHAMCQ
Assay: gel filtration of native luciferase (about 106 kDa) against SDS-PAGE and SDS gel filtration HPLC (35 kDa and 19 kDa components)
Procedure: The deep-sea luminous shrimp (Oplophorus gracilirostris) obtained in the Suruga Bay, Shizuoka, Japan were used as a starting material. A crude extract containing Oplophorus luciferase was prepared in the same manner as disclosed by Shimomura, et al., in Biochemistry 17 (1978) and further purified by chromatography in two steps. The first step was by hydrophobic interaction chromatography on a column of butyl Sepharose 4 Fast Flow (Pharmacia; 0.7 cm×3.5 cm) using 20 mM Tris-HCl, pH 8.5, eluting with decreasing concentrations of ammonium sulfate starting at 1.5 M. The second step was by gel filtration on a column of Superdex 200 Prep (Pharmacia; 1 cm×48 cm) in 20 mM Tris-HCl, pH 8.5, containing 50 mM NaCl. The molecular weight of Oplophorus luciferase was estimated to be about 106 kDa by gel filtration on the same column when compared with the molecular weight markers as follows: (a) amylase (200 kDa); (b) alcohol dehydrogenase (150 kDa); (c) bovine serum albumin (67 kDa); (d) ovalbumin (45 kDa); (e) carbonic anhydrase (29 kDa); and (f) ribonuclease (13.7 kDa).
SDS-PAGE analysis (12% polyacrylamide gel) of the purified samples gave two major protein bands corresponding to molecular weights of 35 kDa and 19 kDa, respectively. […]

B1: 19 kDa protein of Oplophorus luciferase (native, purified from Oplophorus gracilirostris) (enzyme)
chain: FTLADFVGDWQQTAGYNQDQVLEQGGLSSLFQALGVSVTPIQKVVLSGENGLKADIHVIIPYEGLSGFQMGLIEMIFKVVYPVDDHHFKIILHYGTLVIDGVTPNMIDYFGRPYPGIAVFDGKQITVTGTLWNGNKIYDERLINPDGSLLFRVTINGVTGWRLCENILA
notes: also called 19 kDa photoprotein
  binding result: binds
